Assay results from US20150361454.

Target: Prochlorococcus marinus MED4 aldehyde decarbonylase (MED4_ADC), wild type

B1: Prochlorococcus marinus MED4 acyl-ACP reductase (MED4_AAR), wild type (protein)
chain: MAFGLIGHSTSFEDAKRKASLLGFDHIADGDLDVWCTAPPQLVENVEVKSAIGISIEGSYIDSCFVPEMLSRFKTARRKVLNAMELAQKKGINITALGGFTSIIFENFNLLQHKQIRNTSLEWERFTTGNTHTAWVICRQLEMNAPKIGIDLKSATVAVVGATGDIGSAVCRWLINKTGIGELLLVARQKEPLDSLQKELDGGTIKNLDEALPEADIVVWVASMPKTMEIDANNLKQPCLMIDGGYPKNLDEKFQGNNIHVVKGGIVRFFNDIGWNMMELAEMQNPQREMFACFAEAMILEFEKCHTNFSWGRNNISLEKMEFIGAASVKHGFSAIGLDKHPKVLAV
products detected on coexpression in E. coli (AAR catalytic activity): when only MED4_AAR is expressed in E. coli no products are detected, and when MED4_AAR and ADC are coexpressed in E. coli the only products detected are alkanes
